Laboratory results published in the DeepSol protein solubility set.

Experiment: soluble on expression in E. coli; label from the status in PepcDB or PDB records

Sequence | soluble on expression in E. coli
MKEKISEKEYKALIRKIGKEHFDGEKEEYGDGTVGVWTYELRKYKLKPPVKVKYVTQEQFQEYKDSNNQRLIKIETTLAAQGEQIRIQVEQIKELQIEQKAQGETLKLILQTLQKMSDRLDKMEVKMDKMEEKMDKMEGKIDKIENRMDKMEVKMDKMEKRIDKLESKLEHHHHHH | not soluble
DIRPSKLLTWCQQQTEGYQHVNVTDLTTSWRSGLALCAIIHRFRPELINFDSLNEDDAVENNQLAFDVAEREFGIPPVTTGKEMASAQEPDKLSMVMYLSKFYELFRGTPLRPV | soluble
MMGFEKVEHLLPDTVLDIVDVIGLAATEQLVKAIGGARFKFGKGKVDTERLAILVEAIGEVKTHELLQVYGGEELYVPRCGKALIQLRNHRFYQEFVKLRDIDKKSGLMAMTKLCPKYGISSRTGYTIINEMSRPAAQQAALF | not soluble
MRILSLSFSNLNSLKGEWKIDFSASPFAENGLFAITGPTGAGKTTILDAICLALYHKTPRLGGISTSSNEIMTRGTAECSAEVEFEVKGKAYRAFWSQRRSRGKVDGNLQAATVELAEVDSEKVLATQVKKKDELINTITGLDFSRFTKSMMLSQGQFAAFLNADANDRAGLLEELTGTEIYGQISEKVHEHYTASKQKLAELKAKAEGVELLSEEDKQALIDEQTELQANQKQQQAQL | not soluble
PHIDIKCFPRELDEQQKAALAADITDVIIRHLNSKDSSISIALQQIQPESWQAIWDAEIAPQMEALIKKPGYSMNA | soluble
MIELKGISQHFRGAGGTDVHALRDVDLSIDKGEIFGIIGRSGAGKSTLVRVINLLNRPTSGTVTVAGQSLTALNADGLRQARRKIGMIFQHFNLLSSRTVYDNVALPLELAGTPRERIREIVLPLLELVGLDAHKDRYPAQISGGQKQRVGIARALASQPDVLLSDEATSALDPETTRSILDLLRKINRELGLTIVLITHQMEVIKQVCDRVAVLDAGRVVELGRVIDVFLKPRHDVTRALIGEVISQELPPSVLARVESRLVAARERGGRDHLFRLAFTGAGVDQPVLAQAIRNYGLDFNILHGHIDEIQGQAFGSLAILASGESADIDNAMHFLREQGVVVEEINHVVLEHHHHHH | not soluble
MGSDKIHHHHHHMRIEVKLLPLKDNPILPFNYNYEVYSQILEKVNSIEPTIAKLLSSPHGFWTFSRIIVRKRKILPDKGIEILSDDVSLYISSSNEDIIRAIAEAVEKSPEFKIGELSFLVGDIKAIKVKELGKENVFSTLSPIVVRTVKFEGNKLRHWDLYPHDELFMDRLRKVMILRYSEVMGETPKDRDFTIEVLKFKPTRLMVGSSYIRGSLMVFRYAGSEEIARFGYENGFGEKTGLGFGMVKLIE | not soluble
MACKLLFWKLKDYQNILLYSPLGHELDIRPLIFRLRQKNKCVWLPKSIKKGAHFSKESFTIAPFRLPLRRLGWFDEPSLSRYYKQELDCIVVPILGMDTSFRRVGFGLGMYDRSLPQLLKRRLKRPLIVFVSRELAIANGVLTNAYDIEADLYMNARIVVKNNKRKHYEQRVNLHFIRSLGSVFDYRSSHVLCDEKDLLRLEHHHHHH | not soluble
GMNSPKNSLYEEKSGHYYNAVNPNLLKHIKKEWKEVLDIGCSSGALGAAIKENGTRVSGIEAFPEAAEQAKEKLDHVVLGDIETMDMPYEEEQFDCVIFGDVLEHLFDPWAVIEKVKPYIKQNGVILASIPNVSHISVLAPLLAGNWTYTEYGLLDKTHIRFFTFNEMLRMFLKAGYSISKVDRVYVDHKMYEPLIEELYGICKKYRLGSGFMAETVVFQYIIEAEKSQL | soluble
MGSDKIHHHHHHMPRGDIGIDLGTASIIVYKRGEGIVLHEPSVVAISEKTGEIVAIGEEAKKMLGKTPEGLKAIRPMKDGVIADYRMIEAIIRNFLKKIIGRFSFVKPSLIIGVPTKITEVEKRAVFEAGLNAGARRVHIVSEPIAAAIGAGIDVMASEGNMVVDIGGGTTDIAVISLGGTVVGESVRMAGDAMDEAIVKFIRKKYGLIIGESTAEEIKKRIGKTHPAFENYEIEIKGRDVVTGLPRTDRVSSEDVREAIEPIIFALLTKLKNVLERTPPELSADIINNGIRLTGGGALLRGLDRTIYDEIHVKTIVADDPITCVARGTGILLEDEKLLKTVCETYSR | not soluble
